Experimental data as given in patent publication US20230183661A1, “BICOMPATIBLE PEPTIDEBIOCOMPATIBLE PEPTIDES FOR INHIBITION OF AGGREGATION OF B-AMYLOID PROTEIN” (Catholic University Industry Academic Cooperation Foundation, priority 2017, published 2023).
Entries after “also recorded” stand apart in the source; their conditions may differ.

Legend:
nerve cells (N2a) [1] = experiment: Cytotoxicity by nuclear morphology through IFA; type: cell-based, mouse; conditions: overexpressed in N2a, FIG. 5
Method: (§1) Twenty-four hours after the transfection, N2a cells were incubated in a 4% paraformaldehyde fixation solution for 15 minutes. The cells were washed with PBS three times, and incubated in a 50 mM NH4Cl/PBS quenching solution for 10 minutes.
(§2) Subsequently, the cells were washed with PBS three times, and incubated in a 0.1% Triton X-100/PBS solution for 5 minutes. The cells were then treated and incubated with 2% FBS/blocking buffer at room temperature for 1 hour. The cells were then treated and incubated with FLAG antibodies diluted 1/100 at room temperature for 2 hours, washed with PBS three times, and then treated and incubated with a goat anti-mouse Alexa Fluor®-red 594 dye.
(§3) The sample was washed with PBS three times, and mounted on a glass slide using a FluoroGuard Antifade reagent (Bio-Rad Laboratories, Inc.). A fluorescent image was obtained using a confocal laser scanning microscope (Zeiss LSM 510 Meta, Carl Zeiss AG), and processed using Adobe® Photoshop®, and a fluorescence signal intensity was measured using a ZEN 2009 Light Edition software program.
To confirm cytotoxicity of the peptide (NABi) of the present invention, the peptide of the present invention was overexpressed in nerve cells (N2a), and a nuclear morphology was observed through IFA. […]

Aβ [2] = target: T1, Aβ (Homo sapiens, UniProt P05067); experiment: Co-IP assay of SOD1 truncated peptides co-overexpressed with Aβ in nerve cells (N2a); type: binding; parameters: Aβ, and generally a peptide consisting of 36 to 43 amino acids; expressed in transfected cells; host or cells: N2a (murine neuroblastoma); conditions: for Acting with β-amyloid / Binding strength with β-amyloid: Co-IP; for Acting with β-amyloid: peptide and Aβ overexpressed in N2a; for Binding strength with β-amyloid: relative score without scale; for Binding to Aβ: FIG. 3, Co-IP; for Binding strength to Aβ: FIG. 3
Method: The transfected HEK293T, H4 and N2a cells were lysed in a NETN buffer and incubated on ice for 1 hour. This solution includes 100 mM of NaCl, 1 mM of EDTA, 20 mM of Tris-HCl (pH 8.0), 0.5% (v/v) NP-40 and protease inhibitors. Among the protease inhibitors, aprotinin and leupeptin have a concentration of 2 μg/ml, and PMSF has a concentration of 0.1 mM.
1 mg of a protein extract and 1 μg of a primary antibody were mixed and cultured at 4° C. for 12 hours. The mixture was mixed with Protein G Sepharose 4 Fast Flow (GE Healthcare), and cultured at 4° C. for 1 hour, yielding a binding immune complex through centrifugation. A sample buffer was added to the precipitated Sepharose and boiled, and the buffer includes 44 mM Tris-HCl (pH 6.8), 2% SDS, 144 mM β-mercaptoethanol, 10% (v/v) glycerol, and 0.004% (v/v) bromophenol blue.
The immunoprecipitated sample was subjected to 12% SDS-polyacrylamide gel electrophoresis (SDS-PAGE) to transfer proteins to a membrane, and then immunoblotting with a FLAG antibody, a SOD1 antibody and a GFP antibody.
To identify a β-strand exposed at a protein surface and inhibiting Aβ protein aggregate formation through interactions with Aβ, all types of truncated fragments of SOD1 consisting of eight β-strands (β1 to β8) were systemically designed and constructed (FIG. 2). FIG. 2 schematically illustrates SOD1 and the β1-to-β8 structure of SOD1, and the sequences of Peptides 1 to 6.
To determine a determinant binding to Aβ, various peptides from which a specific β-strand was removed were constructed. Peptide 2 was prepared by removing a β-turn linked to the β2 strand in Peptide 1. Peptides 1 to 6 and Aβ were overexpressed in nerve cells (N2a), and then a Co-IP assay was performed.

nerve cells (H4 cells) [3] = experiment: Neural cell death through nuclear morphology; type: cell-based; conditions: peptide and Aβ overexpressed in H4 cells, versus Aβ-only control, FIG. 11
From the text: For the control, Aβ was overexpressed in the nerve cells (H4 cells).

Aβ [4] = target: T1, Aβ; experiment: Aβ aggregate formation under aggregate formation conditions, measured through IB; type: biochemical; conditions: FIG. 8
Method: 9. Formation of β-Amyloid Aggregate A monomer recombinant Aβ42 (Catalog No. 03-111, Invitrogen™ Co.) peptide was added to 1,1,1,3,3,3-hexafluoro-2-propanol (HFIP, Sigma-Aldrich Co. LLC) and stored in a −80° C. freezer, and the HFIP was evaporated and removed immediately before use. For the Aβ aggregate formation, 20 μM of Aβ peptides were dissolved in a 0.1 M HEPES/TBS buffer or 0.01 M HCl/TBS buffer and incubated at 37° C. for 14 days. The TBS buffer included 50 mM Tris-HCl and 150 mM NaCl.
To confirm the inhibition of Aβ aggregation by the peptide (NABi) of the present invention, the peptide (NABi) of the present invention and Aβ were cultured under i) a 0.1 M HEPES/TBS (pH 7.4) condition or ii) a 0.01 M HCl/TBS condition, and then the degree of Aβ aggregate formation was measured through IB.
Under an Aβ aggregate formation condition, for example, i) a 0.1 M HEPES/TBS (pH 7.4) condition or ii) a 0.01 M HCl/TBS condition, the control was subjected to IB in order to measure a degree of Aβ aggregate formation.

nerve cells (H4 cells) [5] = experiment: Neural cell death through PI staining; type: cell-based; conditions: peptide and Aβ overexpressed in H4 cells, FIG. 10
From the text: Approximately 40 to 50% of the H4 cells were positive for a neuron marker (neuron-specific enolase; NSE). Since the H4 cells were sensitive to an Aβ aggregate, and neural cell death resulted from the Aβ aggregate, they were used in neural cell death analysis.
For the control, Aβ was overexpressed in nerve cells (H4 cells).

nerve cells (H4 cells) [6] = experiment: Neural cell death-associated proteins through IB at different peptide expression levels; type: cell-based; conditions: peptide and Aβ expressed in H4 cells, FIG. 13 lanes 6 to 8
Method: (§4) Cells were lysed in an RIPA buffer and incubated at 4° C. for 30 minutes. The RIPA buffer includes 2 μg/mL of a composition including 0.15 M NaCl, 0.5% (v/v) sodium-deoxycholate, 0.1% (v/v) SDS, 0.05 M Tris-HCl (pH 8.0), 1% (v/v) NP-40, aprotinin and leupeptin, 1 mM PMSF and a phosphatase inhibitor.
(§5) The phosphatase inhibitor included 1 mM Na3VO4 and 1 mM NaF. A protein concentration was measured by a Bradford assay (Bio-Rad Laboratories). The sample was separated in a 12% or 15% SDS-polyacrylamide gel.
(§6) The cells were lysed in a lysis buffer (Catalog No. 9803, Cell Signaling Technology), and the sample was separated in a 13% blue gel according to the manufacturer's protocol (MitoSciences Inc.).
(§7) Proteins were transferred to Protran® nitrocellulose membranes (Sigma-Aldrich Co. LLC), and then the membranes were incubated in a 5% non-fat dried milk/TBST solution at room temperature for 1 hour. […]
(§8) The membranes were incubated with a primary antibody at room temperature for 1 hour, and incubated again with a secondary antibody for 1 hour. The antigen-antibody complex was detected using an enhanced chemiluminescence kit (Santa Cruz Biotechnology, Inc.). […]
For the control, after Aβ was expressed in nerve cells (H4 cells), the expression and activity of a neural cell death-associated protein were measured through IB.

nerve cells (N2a) [7] = experiment: Self-aggregate formation of peptide overexpressed in nerve cells (N2a), immunofluorescence; type: cell-based, mouse
Method: as §1, §2, §3
To identify whether a self-aggregate of the peptide (NABi) of the present invention was formed, the peptide of the present invention was overexpressed in nerve cells (N2a), and then measured by an immunofluorescence method.

nerve cells (H4 cells) [8] = experiment: Neural cell death through AnnexinV staining at different peptide expression levels; type: cell-based; conditions: all expression levels of the peptide, H4 cells with Aβ, FIG. 12
From the text: An expression level of the peptide of the present invention was differentially adjusted.

nerve cells (N2a) [9] = experiment: Cytotoxicity through IB of neural cell death-associated proteins; type: cell-based, mouse; conditions: peptide overexpressed in N2a, FIG. 6
Method: as §4, §5, §6, §7, §8
For the control, normal nerve cells (N2a) were treated with STS to induce apoptotic cell death (apoptosis positive control), and then the expression and activity of a neural cell death-associated protein were evaluated.

Aβ protein aggregate = target: T2, Aβ protein aggregate (Homo sapiens, UniProt P05067); experiment: Aβ aggregation inhibition in nerve cells through IFA; type: cell-based; conditions: peptide and Aβ expressed, FIG. 7; Aβ-only control about 50% cells with aggregates
T2 construct: Aβ, and generally a peptide consisting of 36 to 43 amino acids; expressed in transfected cells; host or cells: N2a (murine neuroblastoma)
Method: as §1, §2, §3
To confirm the inhibition of Aβ aggregation by the peptide (NABi) of the present invention, the peptide of the present invention and Aβ were expressed in nerve cells, and then an Aβ protein aggregate was quantitatively analyzed through IFA. […]

Aβ [10] = target: T1, Aβ; experiment: FRAP assay of Aβ mobility in nerve cells (N2a); type: cell-based; parameters: Aβ, and generally a peptide consisting of 36 to 43 amino acids; expressed in transfected cells; host or cells: N2a (murine neuroblastoma); conditions: FIG. 9
Method: Fluorescence recovery after photobleaching (FRAP) is a technique for detecting the mobility of a fluorescence-tagged molecule in living cells. N2a cells were cultured in a 35 mm cell culture dish at a density of 5×10^4 cells/dish, and after 12 hours, a target plasmid was transfected into the cells.
Thirty six hours after the transfection, whether an aggregate was formed was analyzed by a laser confocal microscope. A specific area (white box part) was photobleached 15 times using 594 nm laser, and then fluorescence recovery in the photobleached part was measured at an interval of 3 seconds.
To confirm the inhibition of Aβ aggregation by the peptide (NABi) of the present invention, the peptide of the present invention and Aβ were overexpressed in nerve cells (N2a), a predetermined region was repeatedly exposed to a high intensity laser beam through a FRAP assay. Afterward, an Aβ protein was removed from the laser beam-exposed region, and then fluorescence recovery according to migration of peripheral Aβ proteins was measured in real time.
For the control, after Aβ was overexpressed in nerve cells (N2a), fluorescence recovery according to migration of peripheral Aβ proteins was measured in real time through a FRAP assay.

G93A: SOD1 mutant in which the 93th amino acid glycine was changed to alanine; aggregation and apoptosis comparator [Peptide G93A, reference compound]
Cells with condensed and fragmented nuclei (nerve cells (N2a) [1]): approximately 50%

Peptide 3: truncated fragment of SOD1 consisting of β-strands β4 to β6, 75 aa
Acting with β-amyloid (Aβ [2]): Not acting
Binding strength with β-amyloid (Aβ [2]): 0
Binding to Aβ (Aβ [2]): did not bind to Aβ

Peptide 4: truncated fragment of SOD1, β1-to-β3 sequence, 39 aa (SEQ ID NO: 2) (ATKAVCVLKGDGPVQGIINFEQKESNGPVKVWGSIKGLT; peptide 2)
Binding strength with β-amyloid (Aβ [2]): 1
Binding strength to Aβ (Aβ [2]): bound to Aβ at a similar strength

Peptide 5: Natural Amyloid β Binder and Amyloid β aggregation inhibitor; β1-to-β5 strand sequence of SOD1, 90 aa (SEQ ID NO: 3 or 4)
Morphological changes in nuclei (chromosomal condensation and fragmentation) (nerve cells (H4 cells) [3]): less morphological changes in nuclei
Reduction of Aβ aggregates compared to the control (Aβ [4]; i) 0.1 M HEPES/TBS (pH 7.4)): 1/10
Reduction of Aβ aggregates compared to the control (Aβ [4]; ii) 0.01 M HCl/TBS): ⅓
Nuclear morphology (nerve cells (N2a) [1]; compared with normal N2a control): normal nuclear morphology
Reduction of the number of PI-stained apoptotic cells compared to the control (nerve cells (H4 cells) [5]): approximately ⅓
Detection of truncated caspase-3, truncated PARP and truncated Lamin A/C (nerve cells (H4 cells) [6]): greatly reduced
Binding strength with β-amyloid (Aβ [2]): 1
Binding strength to Aβ (Aβ [2]): bound to Aβ at a similar strength; also recorded: strongly bound to Aβ
Binding to Aβ (Aβ [2]): bound to Aβ
Self-aggregate formation (nerve cells (N2a) [7]): did not form a self-aggregate
Neural cell death by AnnexinV staining (nerve cells (H4 cells) [8]): neural cell death was inhibited
Truncated forms of PARP1, Lamin A/C (nerve cells (N2a) [9]): not detected either
Active caspase-3, active caspase-8, active caspase-9 and γ-H2AX (nerve cells (N2a) [9]; STS as apoptosis positive control): not detected
Nerve cells in which no Aβ protein aggregate was observed (Aβ protein aggregate): ≥ 80%
Recovery of fluorescence removed by photobleaching (Aβ [10]; within 20 seconds): 50%
Recovery of fluorescence removed by photobleaching (Aβ [10]; within 90 seconds): 75%

Peptide 6: truncated fragment of SOD1 consisting of β-strands β5 to β8, 74 aa
Acting with β-amyloid (Aβ [2]): Not acting
Binding strength with β-amyloid (Aβ [2]): 0
Binding to Aβ (Aβ [2]): did not bind to Aβ
